Measurements published in the nanobody polyreactivity screen of Harvey et al. (2022).

test: yeast display, Sf9 membrane polyspecificity reagent, FACS + sequencing; frameworks hold sequencing errors
In short: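 Sorting gates, low and high (top ~1%), were placed on anti-HA fluorescence to track expression and on streptavidin fluorescence to track reagent binding. A clone's polyreactivity label is taken from the gate it came out of. The reagent was 10% biotinylated, detergent-solubilized Sf9 membrane, applied for 1 hour at 4 °C to galactose-induced yeast display cells.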

Sequence	polyreactivity (PSR sort gate)
QVQLVESGGGLVQAGGSLRLSCAASGSTFNYNAMGWYRQAPGKEREFVAAISRSGGSTSYADSVKGRFTLSRDNAKNTVYLQMNSLKPEDTAVYYCAAYYRKTGYDYWGQGTQVTVSS	high polyreactivity
QVQLVESGGGLVQAGGSLRLSCAASGSTFNYNAMGWYRQAPGKERELVAAINRSGGRTYYADSVKGRFTISRDNAKNTVYLKMNSLKPEDTAVYYCAKRYYKSLNRDEFDSWGQGTQVTVSS	high polyreactivity
QVQLVESGGGLVQAGGSLRLSCAASGSTFNYNAMGWYRQAPGKERELVADISWRGGITYYADSVKGRFTISRDNAKNTVYLQMNSLKPEDTAVYYCNADAESFDDGYWGQGTQVTVSS	low polyreactivity
QVQLVESGGGLVQAGGSLRLSCAASGSTFNYYAMGWYRQAPGKERELVAVITNGGTTYYADSVKGRFTISRDNAKNTVYLQMNSLKPEDTAVYYCAAALLGRSKRFYYWGQGTQVTVSS	high polyreactivity
QVQLVESGGGLVQAGGSLRLSCAASGSTFPANAMGCYRQAPGKERELVATISWSCGRTYYADSVKGRFTISRDNAKNTVYLQMNSLKPEDSAVYYCAKGYYWLSTYGDSRYGYWGQGTQVTVSS	high polyreactivity
QVQLVESGGGLVQAGGSLRLSCAASGSTFPANAMGWYRQAPGKERELVATISWSGGRTYYADSVKGRFTISRDNAKNTVYIQMNSLKPEDTAVYYCAAYPLYRRRWTGDYWGQGTQVTVSS	high polyreactivity
QVQLVESGGGLVQAGGSLRLSCAASGSTFPAYAMGWYRQAPGKERELVAAITRGGSTNYADSEKGRFTISRDNAKNTVYLQMNSLKPEDTAVYYCAADKRYWWRYNYWASRSRGESWGQGTQVTVSS	high polyreactivity
QVQLVESGGGLVQAGGSLRLSCAASGSTFPAYTMGWYRQAPGKERELVAAINVSSGGSTYYADSVKGRFTISRDNAKNTVYLQMNSLKPEDTAVYYCATRYVTTGYDYWGQGTQVTVSS	low polyreactivity
QVQLVESGGGLVQAGGSLRLSCAASGSTFPDYAMGWSRPAPGKERELVATINDGDSTSYADSVKGRFTISRDNAKNTVYLQMNSLKTEDTAVYYCAADIRSNRLYDGGYWGQGTQVTVSS	low polyreactivity
QVQLVESGGGLVQAGGSLRLSCAASGSTFPDYAMGWYRQAPGKDRELVAAISGDSDDTYYADSVKGRFTISRDNAKNTVYLQMNSLKPEDTAVYYCAARRGRAVYSVAYDYWGQGTQVTVSS	high polyreactivity
QVQLVESGGGLVQAGGSLRLSCAASGSTFPDYAMGWYRQAPGKEREFVASITWSDGSTYYADSVKGRFTISRDNAKNTVYLQMNSLKPEDTAVYYCIADYVYYYIPVVYEYDYWGQGTQVTVSS	high polyreactivity
QVQLVESGGGLVQAGGSLRLSCAASGSTFPDYAMGWYRQAPGKERELVAAIDGSSGSTYYADSVKGRFTISRDNAKNSVYLRMYSLKPEDTAVYYCNVVASLYTYGYWGQGTQVTVSS	low polyreactivity
QVQLVESGGGLVQAGGSLRLSCAASGSTFPDYAMGWYRQAPGKERELVAVITIRGGSTYYADSVKGRFTISRDNAKNTVYLQMNSLKPEDTAVYYCAATGQLQGWYDMYYWGQGTQVTVSS	low polyreactivity
QVQLVESGGGLVQAGGSLRLSCAASGSTFPEYGMGWYRQAPGKERELVAAINSRGGNTYYADSVKGRFTISRDNAKKTVYLQMNSLKPEDTAVYYCNRLSSYNMDYWGQGTQVTVSS	high polyreactivity
QVQLVESGGGLVQAGGSLRLSCAASGSTFPFYDMGWYRQAPGKERELVAAIRYTGNTYYADSVKGRFTISRDNAKNTVYLQMNSLKPEDTAVYYCAADADYWAYGYWGQGTQVTVSS	low polyreactivity
QVQLVESGGGLVQAGGSLRLSCAASGSTFPGNAMGWYRQAPGKERELVAAITSTGTTYYADSVKGRFTISRDNAKNTVYLQMNSLKPEDSAVYYCNADRYPDPSTFDYWGQGTLVTVSS	low polyreactivity
QVQLVESGGGLVQAGGSLRLSCAASGSTFPGNAMGWYRQAPGKERELVARINDGADTNYADSVKGRFTISRDNAKTTVSLQMNSLKPEDTAVYYCANPYFDGRTHFDSWGQGTQVTVSS	low polyreactivity
QVQLVESGGGLVQAGGSLRLSCAASGSTFPGNAMGWYRQSPGKERELVAAISDGVRTSYADSVKGRFTISRDNAKNTVYLQMNSLKPEDTAVYYCNADFARQYDPHVLYITVGMDYWGQGTKVTVSS	low polyreactivity
QVQLVESGGGLVQAGGSLRLSCAASGSTFPGYAMGRYRPAPGKERELVAAISASGGSTYYADSVKGRFTISRDYAKNTVYLQMNSLTPEDTAVYYCAKVLSRGASAHVYWGQGTQVTVSS	low polyreactivity
QVQLVESGGGLVQAGGSLRLSCAASGSTFPGYAMGWYRQAPGKERELVAAINWRGDSTYYADSVKGRFTISRDNAKNTVYLEMNSLKPEDPAVYFCNTVWGSPSRSSAYDYWGQGTQVTVSS	high polyreactivity

Sequence	polyreactivity (PSR sort gate)
QVQLVESGGGLVQAGGSLRLSCAASGSTFPGYAMGWYRQAPGKERELVAAINWRGDSTYYADSVKGRFTISRDNAKNTVYLQMNSLKPEDTAVYYCAAKYNHVTDEYDYWGQGTEVTVSS	high polyreactivity
QVQLVESGGGLVQAGGSLRLSCAASGSTFPHNPMGWYRQQPGKERELVAAISVGGGSKHYADSVKGRFTISRDNAKNTVYFQMNSLKPEDTAVYYCAKDYAYQYSFVTYDYWGQGTLVTVSS	low polyreactivity
QVQLVESGGGLVQAGGSLRLSCAASGSTFPKYGMGWYRQAPGKEREFVARINWNGGGTYYADSVKGRFTISRDYAKNTVYLQMNSLKPEDTAVYYCNARKRGARFILGYDYWGQGTQVTVSS	low polyreactivity
QVQLVESGGGLVQAGGSLRLSCAASGSTFPKYPMGWYRQSPGKERELVASISVTTGSTYYADSVKGRFTISRDNAKHTVYLQMNSLKPEDTAVYYCAKRTYSRKFRGAYNYWGLGTQVTVSS	high polyreactivity
QVQLVESGGGLVQAGGSLRLSCAASGSTFPLYTMGWYRQAPGKEREFVAAISRSGGSTYYADSVKGRFTISRDNAKNTVFLQINSLKPEDTAVYYCDTRSYKSRTYDYWGQGTQVSVSS	high polyreactivity
QVQLVESGGGLVQAGGSLRLSCAASGSTFPPYAMGWYRQAPGKERELVAAISNVGSTNYADSVKGRFTISRDNAKNTVYLQMNSLKPEETAVYYCAADFWERFALWGWIYLDYDYWGQGTQVTVSS	low polyreactivity
QVQLVESGGGLVQAGGSLRLSCAASGSTFPQYAMGWDRQAPGKERELVAVITDSGGSTYYADSVKGRFTISRDNAKNTVYLQKNSLKPEDTAVYYCAARRWSPRSGLGYGYWGQGTQVTVSS	high polyreactivity
QVQLVESGGGLVQAGGSLRLSCAASGSTFPQYTMGWSRQAQGKERELVAAITSGGRTYYADSVKGRFTISRDNAKNTVYLQMNSLKPEDTAVYFCAAGYWYRYFYYTSSPYDYWGQGTQVTVSS	high polyreactivity
QVQLVESGGGLVQAGGSLRLSCAASGSTFPQYVMGWYRQEPGKERELVAAITKSGGRTYYADSVKGRFTISRDNAKNTVYLQMNSLKPEDTAVYYCAAVRWDISRFRYYSWGHGTQVTVSS	high polyreactivity
QVQLVESGGGLVQAGGSLRLSCAASGSTFPRNAMGWYRQAPGKERELVAAITSGGSTYYADSVKGRFTISRDNAKNTVYLQMNSLKPEDTAVYYCAKSRSSYPYRTYYYWGQGTQVTVSS	low polyreactivity
QVQLVESGGGLVQAGGSLRLSCAASGSTFPRNAMGWYRQAPGKERELVARITWSGGDTYYADSVKGRFTISRDNSKNTVYLQMISLKPEDTAVYYCAARWYRSVLAKVGYGYWGQGTQVTVSS	high polyreactivity
QVQLVESGGGLVQAGGSLRLSCAASGSTFPRYAMGWYRQAPGKERELVAAISSGGSTYYADSVKGRFTISRDNAKNTVYLQMNSLKPEDTAVYYCNARRSRSRYDYWGQGTQVTVSS	high polyreactivity
QVQLVESGGGLVQAGGSLRLSCAASGSTFPRYAMGWYRQAPGKERELVAAISSGGSTYYADSVKGRFTISRDNAKNTVYLQMNSLKPEDTAVYYCNRRPGARYNYWGQGTQVTVSS	high polyreactivity
QVQLVESGGGLVQAGGSLRLSCAASGSTFPRYAMGWYRQAPGKERELVADISSGGSTYYADSVKGRFTISRDNAKNTVYLQMNSLKPEDTAVYYCNARRSRSRYDYWGQGTQVTVSS	high polyreactivity
QVQLVESGGGLVQAGGSLRLSCAASGSTFPRYAMGWYRQAPGKERELVASITSDGGSTYYADSVKGRFTISRDNAKNTVYLQMNSLKPEDTAFYYCNKVPYRGYRRYGYWGQGTQVTVSS	high polyreactivity
QVQLVESGGGLVQAGGSLRLSCAASGSTFPSNAMGWYRQAPGKERELVAAISRSGGSTYYADSVKGRFTISRDNAKNTVYLQMNSLKPEDTAVYYCAVQVRPNSGGTRIHRGGYDYWGQGTQVTVSS	low polyreactivity
QVQLVESGGGLVQAGGSLRLSCAASGSTFPSYVMGWSRQAPGKARELVAAISSSGGRTYYADSVKGRFTISRDNAKNTVYLQMNSLKPEDTAVYYCAAKRGPLVYDHDYWGQGTQVTVSS	high polyreactivity
QVQLVESGGGLVQAGGSLRLSCAASGSTFPTNAMGWYRQAPGKERELVAGITEGGSSTYYADSVKGRFTISRDNAKNTVYLQMTSLKPEDTAVYYCAAAARAGLKRYYYWGQGTQVTVSS	high polyreactivity
QVQLVESGGGLVQAGGSLRLSCAASGSTFPTYAMGWYRQAPGKESELVAAISFSGARTYYADSVKGRFTISRDNAKNTVYLQMNSLKPEDTAVYYCAKDSSYSRRYEYWGQGTQVTVSS	high polyreactivity
QVQLVESGGGLVQAGGSLRLSCAASGSTFPVNTMGWYRQAPGKERELVAAISSDDNTNYADSVKGRFTISRDNAKNTVYLQMNSLKPEDTAVYYCAVKGHPAYVEVPPRYAWEFDYWGQGTQVTVSS	low polyreactivity
